Here are results for one molecule from patent publication US20180087116, “METHODS AND BIOSENSORS FOR TUMOR DETECTION” (published 2018).

Series [1] concerns the target Human serum albumin (HSA) (Homo sapiens, UniProt P02768 P02768:25-609). Briefly: selectivity control, 20 nM HSA in PBS; methylene blue release fluorescence; values only in figure. As to conditions: label: methylene blue (non-covalently adsorbed). As for the experimental part:
(§1) In this example, the fabricated MB/aptamer/nanomotors of EXAMPLE 1 were guided by a magnetic field into solutions (human serum samples) containing various concentration of VEGF165 to react with the fabricated MB/aptamer/nanomotor for about 40 minutes. MB can specifically bind with guanine bases in ss-DNA and the used aptamer herein as a type of ss-DNA riches of guanine bases. The fabricated MB/aptamer/nanomotors were stored at about 4° C. in the refrigerator when they were not in use. Then, the MB/aptamer/nanomotors biosensor was guided to solutions containing the various concentration of VEGF165 tumor marker. Upon exposing MB/aptamer/nanomotor with VEGF165, the adsorbed MB to aptamers released to the solution and let to increase the fluorescence signal of MB. The proposed nanomotor may be used for ‘on-the-fly’ interaction of biological targets such as VEGF165 by functionalizing the gold surface of the nanomotor with various bio-receptors.
In addition, to evaluate the selectivity of the proposed biosensor, some of bio-molecules such as human serum albumin (HSA), bovine serum albumin (BSA), glucose (G), urea (U), dopamine (D) and human immunoglobulin G (HIgG) were used as the potential interferences to evaluate the specificity and the results were shown in FIG. 7.

Series [2] deals with VEGF165 (UniProt P15692-4 P15692-4:27-191). Briefly: methylene blue release from aptamer/nanomotor, fluorescence increase; linear response 2.5-30 nM VEGF165; human serum samples or PBS, 40 min. As to conditions: chain copies: 2; label: methylene blue (non-covalently adsorbed). As for the experimental part:
as §1
In FIG. 6B, relative fluorescence changes are calculated by F/F0, where F0 (7.8) and F are the fluorescence intensity without and with VEGF165, respectively, and excitation wavelength was 625 nm.

Sequence of Human serum albumin (HSA) (P02768 25-609, one chain of several): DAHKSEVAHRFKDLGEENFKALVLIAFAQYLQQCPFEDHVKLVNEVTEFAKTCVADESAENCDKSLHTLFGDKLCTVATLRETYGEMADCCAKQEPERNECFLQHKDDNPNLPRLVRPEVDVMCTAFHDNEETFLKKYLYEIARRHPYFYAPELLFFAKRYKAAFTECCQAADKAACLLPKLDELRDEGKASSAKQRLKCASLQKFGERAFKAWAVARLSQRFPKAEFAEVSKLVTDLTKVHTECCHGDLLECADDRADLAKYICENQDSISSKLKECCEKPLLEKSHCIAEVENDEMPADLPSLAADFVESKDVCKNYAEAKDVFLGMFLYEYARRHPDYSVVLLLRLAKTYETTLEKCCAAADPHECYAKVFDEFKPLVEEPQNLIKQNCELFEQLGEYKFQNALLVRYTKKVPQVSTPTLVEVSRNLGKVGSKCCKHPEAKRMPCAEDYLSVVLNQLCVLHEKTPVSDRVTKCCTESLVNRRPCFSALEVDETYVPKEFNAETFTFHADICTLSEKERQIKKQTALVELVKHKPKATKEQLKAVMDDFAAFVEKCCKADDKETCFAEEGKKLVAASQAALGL
Sequence of VEGF165 (P15692 other isoform, or with tags, fused parts or gaps): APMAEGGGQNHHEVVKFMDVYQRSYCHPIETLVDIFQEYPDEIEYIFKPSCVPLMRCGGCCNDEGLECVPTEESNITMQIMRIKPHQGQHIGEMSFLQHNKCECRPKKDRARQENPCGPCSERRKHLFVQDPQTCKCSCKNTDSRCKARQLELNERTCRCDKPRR

On to TTTCCCGTCTTCCAGACAAGAGTGCAGGG (ssDNA, 5'-SH (thiol), immobilised on Au segment of nanomotor) [anti-VEGF DNA aptamer], for which the binding result was “no binding” in series [1] and “binds” in series [2].
